B1: humanized UCHT1 (anti-CD3) (antibody, V domains shown)
VH: EVQLVESGGGLVQPGGSLRLSCAASGYSFTGYTMNWVRQAPGKGLEWVALINPYKGVSTYNQKFKDRFTISVDKSKNTAYLQMNSLRAEDTAVYYCARSGYYGDSDWYFDVWGQGTLVTVSS
VL: DIQMTQSPSSLSASVGDRVTITCRASQDIRNYLNWYQQKPGKAPKLLIYYTSRLESGVPSRFSGSGSGTDYTLTISSLQPEDFATYYCQQGNTLPWTFGQGTKVEIK
notes: also called anti-CD3 antibody

Experiments:
[1] = biological target: CD3 epsilon-delta heterodimeric protein (Acro Biosystems) (Homo sapiens (assumed)) (UniProt P07766); experiment: SPR; IgGs or Fc fusions captured on antihuman Fc polyclonal antibodies amine-coupled to a CM5 chip; spike trimer or CD3 epsilon-delta heterodimer injected; blank flow cell subtracted; 1:1 Langmuir model, simultaneous global fit of ka and kd, KD = kd/ka; BIAcore 2000 (methods) or BIAcore T100 (footnote of Table S3)
[2] = biological target: T1, CD3 epsilon-delta heterodimeric protein (Acro Biosystems) (Homo sapiens (assumed), UniProt P07766;P04234); experiment: as above; details: both partners purified
T1 construct: also called recombinant CD3delta epsilon; CD3delta-epsilon
T1 sequence (P07766 23-126, stated change not applied, chain 1 of 2): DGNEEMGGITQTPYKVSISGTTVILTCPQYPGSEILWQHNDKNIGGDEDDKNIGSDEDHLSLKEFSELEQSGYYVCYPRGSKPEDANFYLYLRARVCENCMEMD
T1 sequence (P04234 22-171, stated change not applied, chain 2 of 2): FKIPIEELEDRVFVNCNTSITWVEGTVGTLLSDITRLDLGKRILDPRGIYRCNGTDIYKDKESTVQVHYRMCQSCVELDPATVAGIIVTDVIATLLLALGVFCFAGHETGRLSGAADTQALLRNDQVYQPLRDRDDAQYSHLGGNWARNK

| Molecule | Kd [1] [nM] | koff [1] [s⁻¹] | kon [1] [M⁻¹ s⁻¹] | Kd [2] [nM] |
| --- | --- | --- | --- | --- |
| SC02, anti-S/CD3 bispecific CrossMab from CV3-25/UCHT1 (bispecific antibody) | 0.29 | 0.000285 | 974000 | – |
| B1 | – | – | – | 0.16 |

Source: PMC12005765 (Advanced Science, 2025)
